Test results taken from patent US20260234276A1 (DOMAIN THERAPEUTICS, published 2026).
Where “and” joins values, the source holds several entries; their conditions need not be identical. Identical values can stand only once.

B1: 3-52 (antibody, V domains shown)
VH: QVQLQQPGSELVRPGASVKLSCKASGYTFTSYWMHWVKQRPGQGLEWIGNIWPGSASTNYDEKFKNKATLTVDTSSSTAYMQLSSLTSEDSAVYYCIRGGKGAMDYWSQGTSVTVSS
VL: DVVMTQIPLSLPVSLGDQASISCRSSQSLENSYGNTYLNWYLQKPGQSPQLLIYRVSNRFSGVLDRFSGSGSGTDFTLKISRVEAEDLGVYFCLQVTHVPPTFGAGTKLELK
B2: 3-31 (antibody, V domains shown)
VH: DVQLQESGPGLVKPSQSLSLTCTVTGYSITSNYAWNWIRQFPGNKLEWMVYITYSGSTRFNPSLKSRISITRDTSKNQFFLQLNSVTTEDTATYYCARGENLFAYWGQGTLVIVSA
VL: DVVMTQTPLSLPVSLGDQASISCRSSQSLVHNNGNTYLHWYLQKPGQSPKLLIYKVSNRFSGVPDRFSGSGSGTDFTLKINRLEAEDLGVYFCSQSTYVPLTFGAGTKLELK
B3: 3-11 (antibody, V domains shown)
VH: EVQLVESGGGLVQPKGSLKLSCAASGFTFNTYAMNWVRQAPGKGLEWVARIRSKSNNYATYYADSVKDRFTISRDDSQSMLYLQMNNLKTEDTAMYYCVRGREAYYRYDGGYYAMDYWGQGTSVTVSS
VL: DIVMTQAAPSVPVTPGESVSISCRSSKSLLHSNGNTYLYWFLQRPGQSPQLLIYRMSNLASGVPDRFSGSGSGTAFTLRISRVEAEDVGVYYCMQHLEYPFTFGSGTKLEIK
B4: 3-51 (antibody, V domains shown)
VH: QVQLQQSGAELVRPGVSVKISCKGSGYTFTDYAIHWVKQRHAKSLEWIGVISTYYGDTRYNQKFKGKATMTVDKSSNTAYMELARLTSEDSAIYYCARGGLRQDYAMNYWGQGTSVTVSS
VL: not shown
B5: 3-40 (antibody, V domains shown)
VH: QVQLKESGPGLVAPSQSLSITCTVSGLSMNDYVVTWIRQPPGKGLEWLGVIWGGGNTYYNSDLKSRLSITKDNSKSQVFFKMSSLQTDDTAVYYCARRHRDYALDYWGQGISVTVSS
VL: ENVLTQSPAIMSASPGEKVTMTCRASSSVSSSYLHWYQQKSGASPKLWIYSTSNLASGVPARFSGSGSGTSYSLTISSVEAEDAATYYCQQYSGYPYTFGGGTKLEIK
B6: 3-23 (antibody, V domains shown)
VH: QVQLVETGGGLVRPGNSLKLSCVISGFTFSNYRIHWLRQPPGKRLEWIAVITVKSDNYEANYAESVKGRFTISRDDSKSSVYLQMNRLREEDTATYYCSRPDGFSPFVYWGQGTLVTVSA
VL: DIKMTQSPSSMYASLGERVTITCKASQDINNYLSWFQQKPGKSPKTLIYRADRLVDGVPSRFSGSGSGQDYSLTISSLDYEDMGIYYCLQYAEFPPTFGAGTKLELK
B7: 3-12 (antibody, V domains shown)
VH: QVQLQQPGAVLVKPGASVKMSCKASGYTFTSYNMHWLKQTPGQGLEWIGAIAPGKGDTSHNQKFKGKATLTADKSSSTAYMQLSSLTSEDSAVYYCARRNNYEPFVYWGQGTLVTVSA
VL: DIVFTQSPASLAVSLGQRATISCRASESVEYYGTSLMQWYQQKPGQPPKLLIYAASNVESGVPARFSGSGSGTDFSLNIHPVEADDIAMYFCQQSRKVPFTFGSGTKLEIK
B8: 3-47 (antibody, V domains shown)
VH: QVQLQQPGAELVKPGASVKMSCKASGYTFTSYNMHWVKQTPGQGLEWIGAISPGNGDTSYNQKFKGKATLTADKSSSTAYMQLSSLTSEDSAVYYCARGKNGNVPMDYWGQGTSVTVSS
VL: DIVLTQSPASLAVSLGQRATISCRASESVEYYGTSLMKWYQQKPGQPPKLLIYAASIVESGVPARFSGSGSGTDFSLNIHPVEEDDIAMYFCQQSRKVPWTFGGGTKLEIK
B9: 3-34 (antibody, V domains shown)
VH: EVQLQQSGPELVKPGASVKISCKTSGYTFTEYTIHWVKQSHGKSLEWVGGINPDNGNTRYDQKFKGKATLTIDKSSSTAYMELRSLTSEDSAVYYCARVARSSGSGPYAMDYWGQGTSVTVSS
VL: DVVMTQTPLSLPVSLGDQASISCRCTQSLLHTNGDTYLHWYLQKPGQSPKLLIYKVSNRFSGVPDRFSGSGSGTDFTLKISRVEAEDLGVYFCSQSTHVPYTFGGGTKLEIK
B10: 3-42 (antibody, V domains shown)
VH: QVQLKESGPGLVAPSQSLSITCTVSGFSLTDYRVSWIRQPPGKGLEWLGVIWGGRSTYYNSALKSRLSISKDNSKSQVFLKMNSLQTDDTAMYYCAKQGDGYYALDYWGQGTSVTVSS
VL: DVVMTQTPLSLPVSLGDQASISCRSSQSLVHSYGNTYLHWYLQKPGQSPKLLIYKVSNRFSGVPDRFHGSGSGTDFTLKISRVEAEDLGVYFCSQSTHVPPTFGGGTKLEIK
B11: 3-44 (antibody, V domains shown)
VH: QVQLKESGPGLVAPSQSLSITCTVSGFSLTDYGVSWIRQPPGKGPEWLGVIWGGGNTYYNSVLKSRLSISNDNSKSQVFLRMNSLQTADTAIYYCARPRRDYYALDYWGQGTSVTVAS
VL: DVVMTQTPLSLPVSLGDQASISCRSSQSLVYTNGNTFLHWYLQKPGQSPKLLIYKVSNRFSGVPDRFSGSGSGTDFTLKISRVEAEDLGVYFCSQSTHVPPTFGGGTKLEIK

Experiments:
human CCR8 [1] = target: T1, human CCR8 (human, UniProt P51685 1-355); experiment: cell-based or functional assay
human CCR8 [2] = target: T1, human CCR8; experiment: flow cytometry, hCCR8 transfected CHOK1 cells
Protocol: Briefly, 1·10⁵ cells per well in a 96 well plate were incubated with a dilution of unconjugated anti-CCR8 mAb at 10 μg/mL then diluted at 1/3.33, 4 dilution points (during 30 min at 4° C.). […] To determine EC50 value, 8 concentrations of anti-CCR8 mAb were tested. Unbound antibodies were washed away with PBS (Invitrogen by Thermofisher Scientific, Illkirch-Graffenstaden, France) supplemented by 2% Fetal Bovine Serum (Invitrogen by Thermofisher Scientific, Illkirch-Graffenstaden, France) and 2 mM EDTA (Invitrogen by Thermofisher Scientific, Illkirch-Graffenstaden, France). Subsequently, cells are centrifuged (5 min at 400 g) and bound antibody is detected with F(ab′)₂-Goat anti-Mouse IgG (H+L) Cross-Adsorbed Secondary Antibody, Alexa Fluor 488 (dilution 1/500) (Invitrogen by Thermofisher Scientific, Illkirch-Graffenstaden, France) or with F(ab′)₂-Goat anti-Human IgG Fc Secondary Antibody, PE (Invitrogen by Thermofisher Scientific, Illkirch-Graffenstaden, France) (dilution 1/1000) at 4° C. for 30 min. Detection reagent is washed away and cells are centrifuged (5 min at 400 g) and resuspended in 30 μL PBS. Bound detection antibody is quantified on a MacsQuant16 (Miltenyi, Gladbach, Germany) (B1 or B2 channel, 5000 events per acquisition).

human CCR8 [3] = target: T1, human CCR8; experiment: cell-based or functional assay; remark: listed apart in the source
pm6 = pm6 (human, sulfated tyrosines at Y16 and Y17); experiment: ELISA on coated peptide [cont.]
Chain of pm6 (human, sulfated tyrosines at Y16 and Y17) (peptide, as listed by the source): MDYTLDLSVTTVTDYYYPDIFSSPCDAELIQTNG
Protocol: (§1) The specific binding properties of antibodies were evaluated by ELISA with coated CCR8 related peptides (500 ng/mL) in carbonate/bicarbonate buffer. Different peptides were used as described in Table 1 (see Example 1). Each anti-CCR8 mAb was tested at 1 μg/mL then diluted at 1/10. After an incubation at room temperature during 90 min, unbound mAbs were removed by washings. […] After washings, 3,3′,5,5′-tetramethylbenzidine (TMB) (Interchim, Montlugon, France) was added for 15 min. Then the optical density (OD) was determined by using a multiplate reader (Tecan, Lyon, France) and correlated with mAb reactivity on the panel of coated peptides.

pm8 = pm8 (human, sulfated tyrosines at Y15, Y16 and Y17); experiment: ELISA on coated peptide [cont.]
Chain of pm8 (human, sulfated tyrosines at Y15, Y16 and Y17) (peptide, as listed by the source): as above
Protocol: as §1

pm3 = pm3 (human, sulfated tyrosine at Y17); experiment: ELISA on coated peptide [cont.]
Chain of pm3 (human, sulfated tyrosine at Y17) (peptide, as listed by the source): as above
Protocol: as §1

pm5 = pm5 (human, sulfated tyrosines at Y15 and Y17); experiment: ELISA on coated peptide [cont.]
Chain of pm5 (human, sulfated tyrosines at Y15 and Y17) (peptide, as listed by the source): as above
Protocol: as §1

Row | Binder | hCCL1 (100 nM) residual response, Protocol #2, mAb 0.08 µg/mL (human CCR8 [1]) | hCCL1 (100 nM) residual response, Protocol #2, mAb 0.4 µg/mL (human CCR8 [1]) | hCCL1 (100 nM) residual response, Protocol #2, mAb 10 µg/mL (human CCR8 [1]) | hCCL1 (100 nM) residual response, Protocol #3, mAb 0.05 µg/mL (human CCR8 [1]) | hCCL1 (100 nM) residual response, Protocol #3, mAb 0.5 µg/mL (human CCR8 [1]) | hCCL1 (100 nM) residual response, Protocol #3, mAb 5 µg/mL (human CCR8 [1]) | % positive cells (human CCR8 [2]) | MFI fold change to isotype ctrl (human CCR8 [2]) | IC50 (Gi2 BRET, pH 6.5) (human CCR8 [3]) | IC50 (Gi2 BRET, pH 7.4) (human CCR8 [3]) | binding result (pm6) | binding result (pm8) | binding result (pm3) | binding result (pm5)
1 | B1 | 99% | 83% | 56% | 116% | 90% | 45% | 81.6% | 9.92 fold | 0.078 µg/ml and 0.523 nM | 0.087 µg/ml and 0.579 nM |  |  |  | 
2 | B2 |  |  |  |  |  |  | 65.6% | 5.35 fold | 0.163 µg/ml and 1.09 nM | 0.237 µg/ml and 1.58 nM | binds | binds | binds | binds
3 | B3 | 60% | 36% | 19% | 74% | 68% | 48% | 90.6% | 22.7 fold | 0.03 µg/ml and 0.198 nM | 0.031 µg/ml and 0.21 nM | binds | binds | binds | binds
4 | B4 |  |  |  |  |  |  | 73.2% | 6.91 fold | > 67 nM and > 10 µg/ml | > 10 µg/ml and > 67 nM |  | binds |  | binds
5 | B5 |  |  |  |  |  |  | 69.9% | 5.81 fold |  |  | binds | binds | binds | binds
6 | B6 |  |  |  |  |  |  | 80% | 12.7 fold | > 4.5 µg/ml and > 30 nM | > 4.5 µg/ml and > 30 nM | binds | binds | binds | binds
7 | B7 |  |  |  |  |  |  | 87.8% | 14.9 fold | 0.037 µg/ml and 0.248 nM | 0.088 µg/ml and 0.587 nM | binds | binds |  | binds
8 | B8 |  |  |  |  |  |  | 75.8% | 6.81 fold | 0.175 µg/ml and 1.16 nM | 0.483 µg/ml and 3.22 nM | binds | binds | binds | binds
9 | B9 |  |  |  |  |  |  | 73.7% | 10.3 fold | 0.207 µg/ml and 1.38 nM | 0.281 µg/ml and 1.88 nM | binds | binds | binds | binds
10 | B10 |  |  |  |  |  |  | 57.7% | 3.84 fold | 0.516 µg/ml and 3.44 nM | 0.82 µg/ml and 5.47 nM | binds | binds | binds | binds
11 | B11 |  |  |  |  |  |  | 78.9% | 6.36 fold | 0.578 µg/ml and 3.85 nM | 0.812 µg/ml and 5.41 nM | binds | binds | binds | binds
